Assay results taken from PMC7268104, “WRKY Transcription Factor OsWRKY29 Represses Seed Dormancy in Rice by Weakening Abscisic Acid Response”.

B1: OsVP1 promoter V3 probe (dsDNA)
DNA 1: CGGTCAAAACCAGCACGCGCCGAAATCCCGTACTTCCCACTGACACGTAGGCCCCACTGTCATTGACCG
DNA 2: CGGTCAATGACAGTGGGGCCTACGTGTCAGTGGGAAGTACGGGATTTCGGCGCGTGCTGGTTTTGACCG
B2: OsABF1 promoter A1 probe (dsDNA)
DNA 1: AGCGTTAAAGCCATATGTTAAGAACGCGTTGACGAGAAGCTCGAGTTTGAGGTTATGGCC
DNA 2: GGCCATAACCTCAAACTCGAGCTTCTCGTCAACGCGTTCTTAACATATGGCTTTAACGCT
B3: OsVP1 promoter V1 probe (dsDNA)
DNA 1: TCAACCTACCATATCGCTCAAATGATTGTTGACCTGTAACACCCAACGACCTTTATTTAC
DNA 2: GTAAATAAAGGTCGTTGGGTGTTACAGGTCAACAATCATTTGAGCGATATGGTAGGTTGA

Target: OsWRKY29-MBP (Oryza sativa (rice; cv. Hwayoung?), UniProt Q6IEQ2 1-288)
Experiment: EMSA; unlabeled probe competes dose-dependently; LightShift Chemiluminescent EMSA kit binding buffer, 1 ug protein in 20 ul, room temperature, 30 min; 6.5% native PAGE, 0.5x TBE; salt and pH not stated
Conditions: protein: recombinant; tags: MBP (pMAL-c2x fusion); blunt

Sequence of OsWRKY29-MBP (Q6IEQ2 entry or part of it): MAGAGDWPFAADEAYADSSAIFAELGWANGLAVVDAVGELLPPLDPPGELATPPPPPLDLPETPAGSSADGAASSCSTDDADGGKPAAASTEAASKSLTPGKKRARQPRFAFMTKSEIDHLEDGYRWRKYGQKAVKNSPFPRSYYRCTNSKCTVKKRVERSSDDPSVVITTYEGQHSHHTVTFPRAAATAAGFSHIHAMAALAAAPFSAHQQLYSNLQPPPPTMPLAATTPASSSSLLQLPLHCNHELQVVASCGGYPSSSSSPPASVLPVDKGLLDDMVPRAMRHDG

| Binder | binding result |
| --- | --- |
| B1 | binds |
| B2 | binds |
| B3 | binds |
